# Reference: patent US10350158B2, “2′ fluoro-modified RNAs as immunostimulators” (DUKE UNIVERSITY, priority 2013, dated 2019)
# Strand notation (5' to 3'): a small letter for the sugar, then the base; units joined by * are phosphorothioate-linked, units joined directly phosphodiester-linked; [ ] holds rarer units or linkages, { } end groups; capitals alone tell only the bases. {ppp} = triphosphate; r = 2'-OH (RNA); f = 2'-fluoro
# T1: Human TLR7 (Homo sapiens, UniProt Q9NYK1)
# T1 construct: expressed in transfected cells; host or cells: HEK293 (HEK-TLR7), gift of Dr. Todd Brennan, Duke University
# T1 sequence (Q9NYK1 27-1049): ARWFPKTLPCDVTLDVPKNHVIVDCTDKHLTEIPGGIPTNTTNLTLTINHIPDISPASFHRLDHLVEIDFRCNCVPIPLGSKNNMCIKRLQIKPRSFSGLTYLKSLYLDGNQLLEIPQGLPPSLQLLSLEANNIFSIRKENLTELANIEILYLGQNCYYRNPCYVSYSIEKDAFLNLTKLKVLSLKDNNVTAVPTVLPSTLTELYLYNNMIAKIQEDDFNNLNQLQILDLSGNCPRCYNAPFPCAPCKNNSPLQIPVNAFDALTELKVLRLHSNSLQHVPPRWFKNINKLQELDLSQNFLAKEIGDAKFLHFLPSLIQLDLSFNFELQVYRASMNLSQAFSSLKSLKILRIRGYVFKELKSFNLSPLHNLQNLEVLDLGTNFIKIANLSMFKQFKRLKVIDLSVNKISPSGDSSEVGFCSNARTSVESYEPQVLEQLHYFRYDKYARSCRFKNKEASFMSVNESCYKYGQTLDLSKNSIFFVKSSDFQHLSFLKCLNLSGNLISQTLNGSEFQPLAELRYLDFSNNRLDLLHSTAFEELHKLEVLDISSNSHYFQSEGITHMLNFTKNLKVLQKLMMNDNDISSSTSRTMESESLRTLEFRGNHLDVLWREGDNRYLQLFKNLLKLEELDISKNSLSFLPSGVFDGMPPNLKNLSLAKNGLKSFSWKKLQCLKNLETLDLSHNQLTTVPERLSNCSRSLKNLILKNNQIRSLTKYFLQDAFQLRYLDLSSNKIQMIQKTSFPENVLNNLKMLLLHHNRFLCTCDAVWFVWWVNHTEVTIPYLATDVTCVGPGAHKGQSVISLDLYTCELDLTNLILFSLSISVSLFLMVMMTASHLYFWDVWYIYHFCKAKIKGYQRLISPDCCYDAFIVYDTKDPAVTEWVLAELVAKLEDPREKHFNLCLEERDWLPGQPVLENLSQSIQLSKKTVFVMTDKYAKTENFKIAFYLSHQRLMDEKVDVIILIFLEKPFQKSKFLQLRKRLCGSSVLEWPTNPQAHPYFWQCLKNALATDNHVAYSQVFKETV
# Columns and labels:
# Human TLR7 = molecular target: T1, Human TLR7; assay: IL-8 production by human TLR7-expressing HEK293 cells; assay type: cell-based
# Method: The human TLR3 reporter cell, HEK-hTLR3-NFκB/SEAP was purchased from Invivogen. These cells were stably co-transfected with the human TLR3 gene and an inducible SEAP (secreted embryonic alkaline phosphatase) reporter gene into HEK293 cells. The SEAP gene is placed under the control of NF-κB and AP-1. […] SEAP gene expression was measured using the SEAP detection media QUANTI-BLUE (Invivogen), according to the manufacturer's instructions. FIG. 3B is a graph showing that TLR7 is not stimulated by the ssRNAs. Human TLR7-expressing HEK293 cells were kindly provided by Dr. Todd Brennan (Duke University, Durham, N.C.). Treatment with R848 but not with polyI:C, polyI:C-DF and 5′ppp 2′F 10F-DF complexes stimulated HEK-TLR7 cells to produce the inflammatory cytokine IL-8. The data represent the mean of two experiments. Error bars represent the S.D.
# IL-8 = IL-8 ELISA of transfected melanoma cell supernatants; assay type: cell-based, human; settings: 0.5 μg/ml, 24 h
# Method: For the intracellular delivery of immune stimulatory RNAs, RNAs were transfected with the DharmaFECT® Duo liposomal transfection reagent (Thermo Scientific, Waltham, Mass.) at a transfection reagent (μl):RNA (μg) ratio of 3.75:1, according to the manufacturer's instructions. Unless otherwise stated, for the induction of innate immune responses and apoptosis, immune stimulatory RNAs (500 ng/ml) were transfected into 50 to 70% confluent cells. Cells were incubated with an RNA-transfection agent complex for 5 h, followed by replenishment with fresh culture medium. To electroporate cells, 1×10^5 cells suspended in 200 μl Opti-MEM I (Invitrogen) were mixed with 1 μg of immune stimulatory RNAs or 5 μg of 2'Fluoro pyrimidine ribonucleoside triphosphate in 2-mm cuvettes and were electroporated at 300 V for 500 μs using an Electro Square Porator ECM 830 (BTX, San Diego, Calif.). For the knockdown of RNA-sensing PRRs, cells were transfected with PRR-specific siRNAs (25 nM) twice at 2-day intervals using DharmaFECT®-1 (Thermo Scientific). At 5 h after the second siRNA transfection, cells were harvested, replated into a 96-well plate and incubated overnight. […] The production of human IL-8 was analyzed with a human IL-8 ELISA kit (eBioscience). IFN-β production was determined with a human IFN-β ELISA kit (PBL Biomedical Laboratories, Piscataway, N.J.) by following the manufacturer's instructions.
molecule,measurement,setting,value
"10F: 5′ppp 2′F pyrimidine ssRNA aptamer, 71 nt, human melanocytic cell-targeting, SEQ ID NO: 4 (nucleic acid) {ppp}-rGrGrGrArGrGrAfCrGrAfUrGfCrGrGfUrAfCfCfUrGrAfCrArGfCrAfUfCfUfUrGrAfUrArAfUrGrGfUfCfCfUrAfCrGrGrArGfCfCrGfUfUfCfCrArGrAfCrGrAfCfUfCrGfCfCfCrGrA",stimulation of HEK-TLR7 cells to produce IL-8,Human TLR7,not
same,"IL-8 production, fold compared to unmodified 5′ppp RNAs",IL-8,over 2 fold
same,"IL-8 production, in words",IL-8,strong induction
